Experiment [1] deals with Claudin18.1 on cells (human) (UniProt P56856). Description: flow cytometry on 293T-Claudin18.1 cells, antibody at 0.375 µg/mL. Background: A flow cytometer gives signals particle by particle.
The target in experiment [2] is Claudin18.2 on cells (human) (UniProt P56856). The experiment can be described thus: flow cytometry on 293T-Claudin18.2 cells, antibody at 0.75 µg/mL.
Experiment [3] has as its target Claudin18.1 on cells (human) (UniProt P56856). The experiment can be described thus: flow cytometry on 293T-Claudin18.1 cells, antibody at 0.75 µg/mL.
The target is the same in experiment [4]. The experiment can be described thus: flow cytometry on 293T-Claudin18.1 cells, antibody at 3 µg/mL.
Experiment [5] addresses Claudin18.2 on cells (human) (UniProt P56856). Description: cell-based or functional assay.
For experiment [6] the target is unchanged. Description: flow cytometry on 293T-Claudin18.2 cells, antibody at 1.5 µg/mL.
Experiment [7] has the same target. Description: flow cytometry on 293T-Claudin18.2 cells, antibody at 3 µg/mL.
For experiment [8] the target is unchanged. Description: flow cytometry on NUGC4 cells, antibody at 3 µg/mL.
Experiment [9] has the same target. Description: flow cytometry on NUGC4 cells, antibody at 0.75 µg/mL.
The target in experiment [10] is Claudin18.1 on cells (human) (UniProt P56856). The experiment can be described thus: flow cytometry on 293T-Claudin18.1 cells, antibody at 1.5 µg/mL.
Experiment [11] deals with Claudin18.2 protein (Genscript Biotech) (UniProt P56856). Description: ELISA, plate coated with Claudin18.2 antigen at 0.2 µg/mL, antibody at 1 µg/mL. For orientation: An ELISA detects its analyte on a solid surface through an enzyme-linked reagent.
Experiment [12] shares this target. Description: ELISA, plate coated with Claudin18.2 antigen at 0.0125 µg/mL, antibody at 1 µg/mL.
The target of experiment [13] is Claudin18.2 on cells (human) (UniProt P56856). The experiment can be described thus: flow cytometry on NUGC4 cells, antibody at 1.5 µg/mL.
Experiment [14] addresses Claudin18.2 protein (Genscript Biotech) (UniProt P56856). Description: ELISA, plate coated with Claudin18.2 antigen at 0.05 µg/mL, antibody at 1 µg/mL.
Experiment [15] addresses Claudin18.2 on cells (human) (UniProt P56856). Description: flow cytometry on 293T-Claudin18.2 cells, antibody at 0.375 µg/mL.

B1: CLDMix-CA818-IgG1 (antibody, V domains shown)
VH: GAATAVGRRTVEASETLSLTCAVYGGSFSGYYWSWIRQPPGKGLEWIGEINHSGSTNYNPSLKSRVTISVDTSKNQFSLKLSSVTAADTAVYYCARGPYDILTGYYPYWYFDLWGRGTLVTVSS
VL: DIVMTQSPSTLSASVGDRVTITCRASQGIRNDLGWYQQKPGKAPKLLIYDASSLQSGVPSRFSGSGYGTDFTLTISSLQPEDFATYYCLQDYNYPWTFGQGTKLEIKR
In the case of B1, the mean fluorescence intensity is 7960 in experiment [1]; 17300 in experiment [2]; 15200 in experiment [3]; 34400 in experiment [4]; 34200 in experiment [6]; 33300 in [7]. Moreover, the mean fluorescence intensity in experiment [8] amounted to 42600; in experiment [9] it was 15000; in [10] it was 17900; in experiment [13], 20400; in experiment [15], 9360. The ADCC inhibition rate, %, antibody 0.5 µg/mL, 293T-Claudin18.2 target cells, PBMC effectors, LDH in experiment [5] came out at 15%. The ADCC inhibition rate, %, antibody 5 µg/mL, 293T-Claudin18.2 target cells, PBMC effectors, LDH in experiment [5] was found to be 25%. In [5], this molecule yielded an ADCC inhibition rate, %, antibody 50 µg/mL, 293T-Claudin18.2 target cells, PBMC effectors, LDH of 45%. Moreover, the OD450 was determined as 3.19 in experiment [11], 0.492 in [12] and 1.28 in [14].

B2: CLDQ1-CA841-IgG1 (antibody, V domains shown)
VH: QVQLVQSGAEVKKPGSSVKVSCKASGGTFSSYAISWVRQAPGQGLEWMGRIIPILGIANYAQKFQGRVTVTADKSTSTAYMELSSLRSEDTAVYYCARERDNWDPYYYYYGMDVWGQGTTVTVSS
VL: DIQMTQSPSTLSASVGDRVTITCRASQSINSWLAWYQQKPGKAPKLLIYKASSLESGVPSRFSGSGSGTEFTLTISSLQPDDFATYYCQQYNSFPLTFGGGTKVEIKR
With B2, the results for the OD450 in experiment [11], in experiment [12] and in experiment [14] were 2.38, 0.165 and 0.484, respectively.
